Series [1] has as its target T1, POT1 (POT1-N) (UniProt Q9NUX5).
T1 sequence: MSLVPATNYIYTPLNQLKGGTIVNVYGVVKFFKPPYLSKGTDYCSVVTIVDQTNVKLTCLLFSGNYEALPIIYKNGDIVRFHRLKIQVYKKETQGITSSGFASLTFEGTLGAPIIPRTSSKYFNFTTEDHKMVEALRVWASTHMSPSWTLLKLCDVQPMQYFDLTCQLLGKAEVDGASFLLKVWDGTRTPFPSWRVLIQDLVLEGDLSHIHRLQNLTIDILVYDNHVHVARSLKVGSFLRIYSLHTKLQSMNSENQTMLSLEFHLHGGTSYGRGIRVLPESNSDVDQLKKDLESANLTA
The series is described as follows: FTSA (SYPRO Orange). The settings on record: PNA backbone; printed as TTAGGGTTAG-O; 20 mM potassium phosphate, 180 mM KCl, pH 7.2; FTSA 20-99 °C, typically 5 uM POT1 and 50 uM DNA.

Series [2] concerns the target T2, POT1 (POT1-N) (UniProt Q9NUX5 1-299).
T2 sequence: T1 sequence
Kind of series: FTSA titration (SYPRO Orange), Model 1; dCp_b -4300 J/mol/K; binding enthalpy fixed at -139 kJ/mol; dG25 -66.1 kJ/mol; 20 mM potassium phosphate, 180 mM KCl, pH 7.2; FTSA 20-99 °C, typically 5 uM POT1 and 50 uM DNA. Particulars: protein: recombinant; tags: C-terminal 6xHis; single strand.

Series [3] deals with T2, POT1 (POT1-N). Kind of series: FTSA titration (SYPRO Orange), Model 2; dCp_b fixed at 0; binding enthalpy and entropy fitted; dG25 -57.7 kJ/mol; 20 mM potassium phosphate, 180 mM KCl, pH 7.2; FTSA 20-99 °C, typically 5 uM POT1 and 50 uM DNA. Particulars: protein: recombinant; tags: C-terminal 6xHis; single strand.
Series [4] deals with T2, POT1 (POT1-N). Kind of series: FTSA titration (SYPRO Orange), Model 3; dCp_b 0; binding entropy and unfolding enthalpy fitted; dG25 -57.9 kJ/mol; 20 mM potassium phosphate, 180 mM KCl, pH 7.2; FTSA 20-99 °C, typically 5 uM POT1 and 50 uM DNA. Particulars: protein: recombinant; tags: C-terminal 6xHis; single strand.
In series [5] the target is T2, POT1 (POT1-N). The series is described as follows: FTSA (SYPRO Orange); no appreciable Tm shift; 20 mM potassium phosphate, 180 mM KCl, pH 7.2; FTSA 20-99 °C, typically 5 uM POT1 and 50 uM DNA. The settings on record: protein: recombinant; tags: C-terminal 6xHis; single strand.

TTAGGGTTAG [PNA of O1] returned a binding signal (°C (delta Tm)) in series [1] of 1.
On to TTAGGGTTAG (ssDNA) [O1], for which the Ka in series [2] turned out to be 4e+11 M⁻¹; in series [3], 1e+10 M⁻¹; in series [4], 1e+10 M⁻¹.
Turning to CTAACCCTAA (ssDNA) [O1c (negative control)], the binding result in series [5] is listed as “no binding”.

The values above are taken from PMC8009405, “POT1 stability and binding measured by fluorescence thermal shift assays”.
